# Results taken from US20110177064A1, “Compositions and Methods for Treatment of Ovarian Cancer” (priority 2010, published 2011).
# Several values for one entry are separate records, joined by “and”; a condition that tells them apart may be missing. Equal values may be shown once.
# B1: IMGN901 (conjugate, chains of the INN, looked up)
# VH: QVQLVESGGGVVQPGRSLRLSCAASGFTFSSFGMHWVRQAPGKGLEWVAYISSGSFTIYYADSVKGRFTISRDNSKNTLYLQMNSLRAEDTAVYYCARMRKGYAMDYWGQGTLVTVSS
# VL: DVVMTQSPLSLPVTLGQPASISCRSSQIIIHSDGNTYLEWFQQRPGQSPRRLIYKVSNRFSGVPDRFSGSGSGTDFTLKISRVEAEDVGVYYCFQGSHVPHTFGQGTKVEIK
# modifications: mertansine (DM1) conjugate
# Assays:
# [1] = test system: COLO 720E human ovarian carcinoma xenografts; experiment: Low-dose IMGN901 combination therapy of established subcutaneous COLO 720E xenografts; format: in vivo, mice; settings: single agent IMGN901 11.4 mg/kg qw×3
# Method: (§1) Mice were inoculated with human ovarian cancer cell lines and allowed to become established (average tumor size of about 100 mm^3) prior to treatment. Conjugate dosing is described based on DM1 concentration. Efficacy is reported as both the % of tumor growth for treated vs. control (% T/C) and log cell kill (LCK) determined from the tumor doubling time and the tumor growth delay due to the treatment.
# The anti-tumor effect of reduced doses of IMGN901 and paclitaxel plus carboplatin was evaluated in established subcutaneous COLO 720E xenografts. When the tumors reached about 100 mm^3 in size (14 days after tumor cell inoculation), the mice were randomly divided into groups of 6 animals each based on tumor volume. Mice were treated with the single agent IMGN901 at a dose of 11.4 mg/kg (qw×3) or the chemotherapeutic combination paclitaxel/carboplatin at either a high-dose (paclitaxel 20 mg/kg, qw×3/carboplatin, 100 mg/kg ip, single injection) or a low-dose (paclitaxel 10 mg/kg, qw×3/carboplatin, 100 mg/kg ip, single injection).
# [2] = test system: OVCAR-3 human ovarian carcinoma xenografts; experiment: Anti-tumor effect in established subcutaneous OVCAR-3 ovarian carcinoma xenografts; format: in vivo, SCID mice; set-up: key to activity (NCI standards): Percent T/C values less than or equal to 42% and/or LCK values of 0.5 or greater are considered active; percent T/C values less than 10% are considered highly active
# Method: as §1
# The anti-tumor effect of IMGN901 was evaluated in an established subcutaneous xenograft model of ovarian carcinoma. SCID mice were inoculated with OVCAR-3 ovarian carcinoma cells (1×10^7 cells/animal) injected subcutaneously into the right flank. When the tumors reached about 100 mm^3 in size (24 days after tumor cell inoculation), the mice were randomly divided into three groups (6 animals per group). Mice were treated with the single agent IMGN901 at 6.5 mg/kg and 13 mg/kg, respectively, administered intravenously once weekly for three weeks (day 24, 31, […]). A control group of animals received PBS administered intravenously at the same schedule. Tumor growth was monitored by measuring tumor size twice per week. Tumor size was calculated with the formula: length×width×height×½.
# [3] = test system: COLO 720E human ovarian carcinoma xenografts; experiment: Dose-response anti-tumor activity in established subcutaneous COLO 720E xenografts; format: in vivo, SCID mice; set-up: key to activity (NCI standards): Percent T/C values less than or equal to 42% and/or LCK values of 0.5 or greater are considered active; percent T/C values less than 10% are considered highly active; settings: for complete regressions (CR) / partial regressions (PR) / mice remaining tumor free at the end of the study: 6 mice; for mice remaining tumor free at the end of the study: 119 days
# Method: as §1
# The anti-tumor effect of IMGN901 was evaluated in an established subcutaneous xenograft model of ovarian carcinoma. SCID mice were inoculated with COLO 720E ovarian carcinoma cells (1×10^7 cells/animal) injected subcutaneously into the right flank. (The COLO 720E human ovarian adenocarcinoma cell line was obtained from the European Collection of Cell Cultures (ECACC, catalog no. 93072111).) When the tumors reached about 100 mm^3 in size (10 days after tumor cell inoculation), the mice were randomly divided into four groups (6 animals per group). Mice were treated with the single agent IMGN901 at 6, 12 and 24 mg/kg, respectively, administered intravenously once weekly for three weeks (day 10, 17 and 24). A control group of animals received PBS administered intravenously at the same schedule. Tumor growth was monitored by measuring tumor size twice per week. Tumor size was calculated with the formula: length×width×height×½.
# [4] = test system: COLO 720E human ovarian carcinoma xenografts; experiment: Combination therapy of established subcutaneous COLO 720E xenografts; format: in vivo, Athymic nude mice; set-up: key to activity (NCI standards): Percent T/C values less than or equal to 42% and/or LCK values of 0.5 or greater are considered active; percent T/C values less than 10% are considered highly active
# Excerpt: as §1
# The anti-tumor effect of a combination of huN901-DM1 and paclitaxel plus carboplatin was evaluated in an established subcutaneous xenograft model of ovarian cancer. Athymic nude mice were inoculated with COLO 720E human ovarian carcinoma cells (1×10^7 cells/animal) injected subcutaneously into the right flank. When the tumors reached about 80 mm^3 in size (10 days after tumor cell inoculation), the mice were randomly divided into six groups (6 animals per group). Mice were treated with the single agent IMGN901 at a dose of 13 mg/kg once weekly for three weeks (day 10, 17 and 24 post tumor cell inoculation) administered intravenously. Two additional groups of mice were treated with the combination chemotherapy regimen paclitaxel/carboplatin at two dose levels: a high-dose group of paclitaxel (20 mg/kg iv, weekly for 3 weeks)/carboplatin (100 mg/kg ip, single injection) and a low-dose group of paclitaxel (10 mg/kg iv, weekly for 3 weeks)/carboplatin (100 mg/kg ip, single injection). Two additional groups were treated with the combination of IMGN901 and either high-dose or low-dose paclitaxel/carboplatin with the same doses and routes of administration as for individual treatments. Tumor growth was monitored by measuring tumor size twice per week. Tumor size was calculated with the formula: length×width×height×½.
# [5] = IMGN901 13 mg/kg iv once weekly for three weeks
# [6] = 24 mg/kg iv once weekly for three weeks
# [7] = single-agent IMGN901 13 mg/kg iv once weekly for three weeks
molecule,measurement,setting,value
B1,Response,[1],inactive
same,T/C,[1],62%
same,CR,[1]; 11.4 mg/kg,no partial (PR) or complete regressions (CR) and 0/6
same,PR,[1]; 11.4 mg/kg,no partial (PR) or complete regressions (CR) and 1/6
same,activity (NCI standards),[2]; IMGN901 6.5 mg/kg iv once weekly for three weeks,inactive
same,activity (NCI standards),[2]; [5],active
same,tumor growth inhibition (T/C),[2]; [5],21%
same,activity (NCI standards),[3]; 6 mg/kg iv once weekly for three weeks,inactive
same,activity (NCI standards),[3]; 12 mg/kg iv weekly for 3 weeks,active
same,mice exhibiting tumor regressions,[3]; 12 mg/kg iv weekly for 3 weeks,Four of 6
same,tumor growth inhibition value (T/C),[3]; 12 mg/kg iv weekly for 3 weeks,18%
same,complete regressions (CR),[3]; 12 mg/kg iv weekly for 3 weeks,2
same,partial regressions (PR),[3]; 12 mg/kg iv weekly for 3 weeks,4
same,mice remaining tumor free at the end of the study,[3]; 12 mg/kg iv weekly for 3 weeks,one
same,activity (NCI standards),[3]; [6],highly active (percent T/C values less than 10% are considered highly active)
same,mice exhibiting tumor regressions,[3]; [6],six
same,tumor growth inhibition value (T/C),[3]; [6],0%
same,complete regressions (CR),[3]; [6],6
same,partial regressions (PR),[3]; [6],6
same,mice remaining tumor free at the end of the study,[3]; [6],four
same,T/C,[4]; [7],32%
same,activity (NCI standards),[4]; [7],active
same,complete regression,[4]; [7],one of six
same,partial tumor regressions,[4]; [7],Two of six
same,tumor-free survivors,"[4]; single-agent IMGN901 13 mg/kg, end of study day 123",no tumor-free survivors
